PMC9352680, “A comprehensive thermodynamic model for RNA binding by the Saccharomyces cerevisiae Pumilio protein PUF4”

Molecular target: T1, PUF4 RNA-binding domain (Saccharomyces cerevisiae, UniProt P25339 537-888)
T1 sequence: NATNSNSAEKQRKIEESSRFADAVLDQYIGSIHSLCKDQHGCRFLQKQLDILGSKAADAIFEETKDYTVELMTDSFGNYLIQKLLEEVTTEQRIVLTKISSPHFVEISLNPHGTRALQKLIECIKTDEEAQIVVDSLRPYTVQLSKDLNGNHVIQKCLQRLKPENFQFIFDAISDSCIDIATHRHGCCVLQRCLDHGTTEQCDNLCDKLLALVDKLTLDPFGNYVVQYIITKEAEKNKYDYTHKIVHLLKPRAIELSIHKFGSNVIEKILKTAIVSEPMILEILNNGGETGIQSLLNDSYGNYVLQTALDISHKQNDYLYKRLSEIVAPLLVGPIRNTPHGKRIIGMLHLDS
Experiment: Mg; RNA-MaP; 20 mM Na-HEPES pH 7.4, 30 mM KOAc, 0.75 mM MgCl2, 0.1% Tween-20, 5% glycerol, 0.1 mg/mL BSA, 2 mM DTT; 25 C; 0.0125-409.6 nM protein
Conditions: tags: N-His6-TEV cleaved; C-SNAP kept, Cy3B-labelled; label: tethered on chip by stalled RNA polymerase

B1: Ic_S1_P4E.1_K4.1_C4.1_H4.1_A4.1_[T5C]_[A6C]_F4.1_[T8C]_[A9C]_T4.1 (ssRNA)
RNA: UCUCUUUGUACCUCCUCUCUU
- Kd: 570 nM

B2: Ic_S1_P4E.1_K4.1_C4.1_H4.1_A4.1_[T5C]_[A6T]_[T7G]_F4.1_[T8G]_[A9T]_T4.1 (ssRNA)
RNA: UCUCUUUGUACUGGUUCUCUU
- Kd: 732 nM

B3: Ic_S1_P4E.1_K4.1_C4.1_H4.1_A4.1_[T5C]_[A6C]_[T7G]_F4.1_[T8C]_[A9G]_T4.1 (ssRNA)
RNA: UCUCUUUGUACCGCGUCUCUU
- Kd: 1120 nM

B4: Ic_S1_P4E.1_K4.1_C4.1_H4.1_A4.1_[T5C]_[A6C]_[T7C]_F4.1_[A9C]_T4.1 (ssRNA)
RNA: UCUCUUUGUACCCUCUCUCUU
- Kd: 41.9 nM

B5: Ic_S1_P4E.1_K4.1_C4.1_H4.1_A4.1_[T5C]_[A6C]_[T7C]_F4.1_[T8C]_[A9T]_T4.1 (ssRNA)
RNA: UCUCUUUGUACCCCUUCUCUU
- Kd: 808 nM

B6: Ic_S1_P4E.1_K4.1_C4.1_H4.1_A4.1_[T5C]_[A6C]_[T7G]_F4.1_[A9T]_T4.1 (ssRNA)
RNA: UCUCUUUGUACCGUUUCUCUU
- Kd: 142 nM

B7: Ic_S1_P4E.1_K4.1_C4.1_H4.1_A4.1_[T5C]_[A6C]_[T7A]_F4.1_[T8A]_[A9C]_T4.1 (ssRNA)
RNA: UCUCUUUGUACCAACUCUCUU
- Kd: 271 nM

B8: Ic_S1_P4E.1_K4.1_C4.1_H4.1_A4.1_[T5C]_[A6C]_[T7G]_F4.1_T4.1 (ssRNA)
RNA: UCUCUUUGUACCGUAUCUCUU
- Kd: 23.4 nM

B9: Ic_S1_P4E.1_K4.1_C4.1_H4.1_A4.1_[T5C]_[A6C]_F4.1_[T8A]_T4.1 (ssRNA)
RNA: UCUCUUUGUACCUAAUCUCUU
- Kd: 66.3 nM

B10: Ic_S1_P4E.1_K4.1_C4.1_H4.1_A4.1_[T5C]_[A6T]_[T7G]_F4.1_[T8C]_T4.1 (ssRNA)
RNA: UCUCUUUGUACUGCAUCUCUU
- Kd: 668 nM

B11: Ib_S1_P3E.1_K3.1_C3.1_H3.1_[G2T]_A3.1_F3.1_[T7A]_T3.1 (ssRNA)
RNA: UCUCUUUUUAUAAAUCUCUU
- Kd: > 2300 nM

B12: Ic_S1_P4E.1_K4.1_C4.1_H4.1_A4.1_[T5C]_[A6G]_F4.1_[A9T]_T4.1 (ssRNA)
RNA: UCUCUUUGUACGUUUUCUCUU
- Kd: 37.8 nM

B13: Ic_S1_P4E.1_K4.1_C4.1_H4.1_A4.1_[T5C]_[A6T]_[T7G]_F4.1_[T8C]_[A9G]_T4.1 (ssRNA)
RNA: UCUCUUUGUACUGCGUCUCUU
- Kd: 1280 nM

B14: Ic_S1_P4E.1_K4.1_C4.1_H4.1_A4.1_[T5C]_[A6C]_[T7C]_F4.1_[T8A]_[A9G]_T4.1 (ssRNA)
RNA: UCUCUUUGUACCCAGUCUCUU
- Kd: 1230 nM

B15: Ic_S1_P4E.1_K4.1_C4.1_H4.1_A4.1_[T5C]_[A6C]_F4.1_[A9G]_T4.1 (ssRNA)
RNA: UCUCUUUGUACCUUGUCUCUU
- Kd: 27.3 nM

B16: Ib_S1_P3E.1_K3.1_C3.1_H3.1_[T3C]_A3.1_F3.1_[T7C]_T3.1 (ssRNA)
RNA: UCUCUUUGCAUACAUCUCUU
- Kd: > 2300 nM

B17: Ib_S1_P3E.1_K3.1_C3.1_H3.1_[A4G]_A3.1_F3.1_[T7A]_T3.1 (ssRNA)
RNA: UCUCUUUGUGUAAAUCUCUU
- Kd: 202 nM

B18: Ic_S1_P4E.1_K4.1_C4.1_H4.1_A4.1_[T5C]_[A6C]_[T7A]_F4.1_[T8G]_[A9C]_T4.1 (ssRNA)
RNA: UCUCUUUGUACCAGCUCUCUU
- Kd: 913 nM

B19: Ic_S1_P4E.1_K4.1_C4.1_H4.1_A4.1_[T5C]_[A6C]_[T7C]_F4.1_[T8A]_[A9T]_T4.1 (ssRNA)
RNA: UCUCUUUGUACCCAUUCUCUU
- Kd: 517 nM

B20: Ic_S1_P4E.1_K4.1_C4.1_H4.1_A4.1_[T5C]_[A6C]_[T7C]_F4.1_[T8C]_[A9C]_T4.1 (ssRNA)
RNA: UCUCUUUGUACCCCCUCUCUU
- Kd: 1090 nM

B21: Ic_S1_P4E.1_K4.1_C4.1_H4.1_A4.1_[T5C]_[A6C]_F4.1_[T8C]_[A9T]_T4.1 (ssRNA)
RNA: UCUCUUUGUACCUCUUCUCUU
- Kd: 587 nM

B22: Ic_S1_P4E.1_K4.1_C4.1_H4.1_A4.1_[T5C]_[A6C]_[T7C]_F4.1_[A9T]_T4.1 (ssRNA)
RNA: UCUCUUUGUACCCUUUCUCUU
- Kd: 26.8 nM

B23: Ic_S1_P4E.1_K4.1_C4.1_H4.1_A4.1_[T5C]_[A6C]_[T7A]_F4.1_[T8C]_[A9G]_T4.1 (ssRNA)
RNA: UCUCUUUGUACCACGUCUCUU
- Kd: 652 nM

B24: Ic_S1_P4E.1_K4.1_C4.1_H4.1_A4.1_[T5C]_[A6C]_F4.1_[T8G]_[A9T]_T4.1 (ssRNA)
RNA: UCUCUUUGUACCUGUUCUCUU
- Kd: 94 nM

B25: Ic_S1_P4E.1_K4.1_C4.1_H4.1_A4.1_[T5C]_[A6C]_[T7G]_F4.1_[T8G]_[A9C]_T4.1 (ssRNA)
RNA: UCUCUUUGUACCGGCUCUCUU
- Kd: > 2300 nM

B26: Ib_S1_P3E.1_K3.1_C3.1_H3.1_[T1A]_A3.1_F3.1_[A8G]_T3.1 (ssRNA)
RNA: UCUCUUAGUAUAUGUCUCUU
- Kd: > 2300 nM

B27: Ic_S1_P4E.1_K4.1_C4.1_H4.1_A4.1_[T5C]_[A6C]_[T7A]_F4.1_[T8A]_[A9G]_T4.1 (ssRNA)
RNA: UCUCUUUGUACCAAGUCUCUU
- Kd: 755 nM

B28: Ic_S1_P4E.1_K4.1_C4.1_H4.1_A4.1_[T5C]_[A6C]_F4.1_[T8C]_[A9G]_T4.1 (ssRNA)
RNA: UCUCUUUGUACCUCGUCUCUU
- Kd: 575 nM

B29: Ic_S1_P4E.1_K4.1_C4.1_H4.1_A4.1_[T5C]_[A6C]_[T7C]_F4.1_[T8A]_T4.1 (ssRNA)
RNA: UCUCUUUGUACCCAAUCUCUU
- Kd: 833 nM

B30: Ic_S1_P4E.1_K4.1_C4.1_H4.1_A4.1_[T5C]_[A6C]_[T7G]_F4.1_[T8C]_[A9T]_T4.1 (ssRNA)
RNA: UCUCUUUGUACCGCUUCUCUU
- Kd: 741 nM

B31: Ic_S1_P4E.1_K4.1_C4.1_H4.1_A4.1_[T5C]_[A6C]_[T7A]_F4.1_[A9T]_T4.1 (ssRNA)
RNA: UCUCUUUGUACCAUUUCUCUU
- Kd: 9.07 nM

B32: Ic_S1_P4E.1_K4.1_C4.1_H4.1_A4.1_[T5C]_[A6C]_[T7C]_F4.1_[T8G]_[A9C]_T4.1 (ssRNA)
RNA: UCUCUUUGUACCCGCUCUCUU
- Kd: 1420 nM

B33: Ic_S1_P4E.1_K4.1_C4.1_H4.1_A4.1_[T5C]_[A6C]_[T7C]_F4.1_[A9G]_T4.1 (ssRNA)
RNA: UCUCUUUGUACCCUGUCUCUU
- Kd: 32.7 nM

B34: Ib_S1_P3E.1_K3.1_C3.1_H3.1_[A4G]_A3.1_F3.1_[T7C]_T3.1 (ssRNA)
RNA: UCUCUUUGUGUACAUCUCUU
- Kd: 38.9 nM

B35: Ic_S1_P4E.1_K4.1_C4.1_H4.1_A4.1_[T5C]_[A6C]_F4.1_[A9T]_T4.1 (ssRNA)
RNA: UCUCUUUGUACCUUUUCUCUU
- Kd: 34.8 nM

B36: Ic_S1_P4E.1_K4.1_C4.1_H4.1_A4.1_[T5C]_[A6C]_F4.1_[T8A]_[A9C]_T4.1 (ssRNA)
RNA: UCUCUUUGUACCUACUCUCUU
- Kd: 56.6 nM

B37: Ic_S1_P4E.1_K4.1_C4.1_H4.1_A4.1_[T5C]_[A6C]_[T7C]_F4.1_[T8G]_[A9T]_T4.1 (ssRNA)
RNA: UCUCUUUGUACCCGUUCUCUU
- Kd: 842 nM

B38: Ic_S1_P4E.1_K4.1_C4.1_H4.1_A4.1_[T5C]_[A6C]_[T7A]_F4.1_[T8A]_[A9T]_T4.1 (ssRNA)
RNA: UCUCUUUGUACCAAUUCUCUU
- Kd: 103 nM

B39: Ic_S1_P4E.1_K4.1_C4.1_H4.1_A4.1_[T5C]_[A6C]_F4.1_[T8A]_[A9T]_T4.1 (ssRNA)
RNA: UCUCUUUGUACCUAUUCUCUU
- Kd: 24.6 nM

B40: Ic_S1_P4E.1_K4.1_C4.1_H4.1_A4.1_[T5C]_[A6C]_[T7C]_F4.1_[T8C]_[A9G]_T4.1 (ssRNA)
RNA: UCUCUUUGUACCCCGUCUCUU
- Kd: > 2300 nM

B41: Ic_S1_P4E.1_K4.1_C4.1_H4.1_A4.1_[T5C]_[A6C]_[T7G]_F4.1_[T8A]_[A9T]_T4.1 (ssRNA)
RNA: UCUCUUUGUACCGAUUCUCUU
- Kd: 519 nM

B42: Ic_S1_P4E.1_K4.1_C4.1_H4.1_A4.1_[T5C]_[A6C]_[T7A]_F4.1_[A9G]_T4.1 (ssRNA)
RNA: UCUCUUUGUACCAUGUCUCUU
- Kd: 3.4 nM

B43: Ic_S1_P4E.1_K4.1_C4.1_H4.1_A4.1_[T5C]_[A6C]_[T7G]_F4.1_[A9C]_T4.1 (ssRNA)
RNA: UCUCUUUGUACCGUCUCUCUU
- Kd: 1140 nM

B44: Ic_S1_P4E.1_K4.1_C4.1_H4.1_A4.1_[T5C]_[A6T]_[T7G]_F4.1_[T8C]_[A9C]_T4.1 (ssRNA)
RNA: UCUCUUUGUACUGCCUCUCUU
- Kd: 684 nM

B45: Ic_S1_P4E.1_K4.1_C4.1_H4.1_A4.1_[T5C]_[A6C]_[T7G]_F4.1_[T8C]_[A9C]_T4.1 (ssRNA)
RNA: UCUCUUUGUACCGCCUCUCUU
- Kd: 1630 nM

B46: Ic_S1_P4E.1_K4.1_C4.1_H4.1_A4.1_[T5C]_[A6C]_[T7A]_F4.1_[T8C]_[A9C]_T4.1 (ssRNA)
RNA: UCUCUUUGUACCACCUCUCUU
- Kd: 573 nM

B47: Ic_S1_P4E.1_K4.1_C4.1_H4.1_A4.1_[T5C]_[A6C]_[T7C]_F4.1_[T8G]_[A9G]_T4.1 (ssRNA)
RNA: UCUCUUUGUACCCGGUCUCUU
- Kd: > 2300 nM

B48: Ic_S1_P4E.1_K4.1_C4.1_H4.1_A4.1_[T5C]_[A6C]_[T7A]_F4.1_[T8A]_T4.1 (ssRNA)
RNA: UCUCUUUGUACCAAAUCUCUU
- Kd: 68 nM

B49: Ic_S1_P4E.1_K4.1_C4.1_H4.1_A4.1_[T5C]_[A6C]_[T7A]_F4.1_[T8G]_[A9G]_T4.1 (ssRNA)
RNA: UCUCUUUGUACCAGGUCUCUU
- Kd: 1790 nM

B50: Ic_S1_P4E.1_K4.1_C4.1_H4.1_A4.1_[T5C]_[A6C]_[T7G]_F4.1_[A9G]_T4.1 (ssRNA)
RNA: UCUCUUUGUACCGUGUCUCUU
- Kd: 515 nM

B51: Ic_S1_P4E.1_K4.1_C4.1_H4.1_A4.1_[T5C]_[A6C]_[T7C]_F4.1_T4.1 (ssRNA)
RNA: UCUCUUUGUACCCUAUCUCUU
- Kd: 7.5 nM
